Laboratory results published in patent publication US20260242419A1, “A CYCLIC PEPTIDE FOR TRAPPING INTERLEUKIN-1 BETA” (Merck Sharp & Dohme LLC, priority 2023, published 2026).
Starred links: 1 amine or outer side, 2 acyl side, 3 side chain; linkers in the order of their positions; H or OH if unused. Non-standard residues stand in square brackets, D forms with d. No end group written: not given here. Trp4Az = (2S)-2-amino-3-(1H-pyrrolo[3,2-b]pyridin-3-yl)propanoic acid, O=C([C@H](Cc1c[nH]c2cccnc12)N[*:1])[*:2]; dPro(4R-(4-pyridylmethyl)) = O=C(O)[C@H]1C[C@@H](Cc2ccncc2)CN1; Ala(piperidin-4-yl) = O=C([C@H](CC1CCN([*:3])CC1)N[*:1])[*:2]; Trp(βS-Me,4-F) = C[C@@H](c1c[nH]c2cccc(F)c12)[C@H](N)C(=O)O; Bip(4'-COOH) = N[C@@H](Cc1ccc(-c2ccc(C(=O)O)cc2)cc1)C(=O)O; Ala(1-bicyclo(1.1.1)pentyl) = N[C@@H](CC12CC(C1)C2)C(=O)O; dPro(4R-Bzl(4-F)) = O=C(O)[C@H]1C[C@@H](Cc2ccc(F)cc2)CN1; Ala(morpholin-4-yl) = N[C@@H](CN1CCOCC1)C(=O)O; Ala(piperazin-1-yl) = N[C@@H](CN1CCNCC1)C(=O)O; Ala(pyrimidin-5-yl) = N[C@@H](Cc1cncnc1)C(=O)O; Phe(4-COOH) = N[C@@H](Cc1ccc(C(=O)O)cc1)C(=O)O; Pro(cis-4-F) = O=C(O)[C@@H]1C[C@H](F)CN1; cisHyp = O=C(O)[C@@H]1C[C@H](O)CN1; d(αMeD) = C[C@@](N)(CC(=O)O)C(=O)O; 4Pal = N[C@@H](Cc1ccncc1)C(=O)O; d(αMeS) = C[C@@](N)(CO)C(=O)O; Cba = N[C@@H](CC1CCC1)C(=O)O; αMeK = C[C@](N)(CCCCN)C(=O)O; Dab = NCC[C@H](N)C(=O)O; Aib = CC(C)(N)C(=O)O

B1: SEQ ID NO: 179 (peptide)
peptide: [Bip(4'-COOH)][Ala(1-bicyclo(1.1.1)pentyl)][Phe(4-COOH)]G[Pro(cis-4-F)][Trp(βS-Me,4-F)][Aib]SW[Aib][Ala(morpholin-4-yl)]QSG[dPro(4R-(4-pyridylmethyl))]
modifications: lactam (positions not given here); also: macrolactam ring, closure sites not given here
B2: SEQ ID NO: 178 (peptide)
peptide: cyclo([Bip(4'-COOH)][Ala(1-bicyclo(1.1.1)pentyl)][Phe(4-COOH)]G[Pro(cis-4-F)][Trp(βS-Me,4-F)][Aib]EW[d(αMeS)][Ala(piperidin-4-yl)]QSG[dPro(4R-(4-pyridylmethyl))])
modifications: ring closure inferred; not fully specified (bridges); printed as Bip4CO2H-AlaPent-Phe4COOH-G-Proc4F-SbMeW4F-Aib-E-W-daMeS-AlaPip4-Q-S-G-dProc4CH24Pal, cyclic (macrolactam)
B3: SEQ ID NO: 177 (peptide)
peptide: cyclo([Bip(4'-COOH)][Ala(1-bicyclo(1.1.1)pentyl)][Phe(4-COOH)]G[Pro(cis-4-F)][Trp(βS-Me,4-F)][Aib]EW[d(αMeS)][Ala(morpholin-4-yl)]QSG[dPro(4R-(4-pyridylmethyl))])
modifications: ring closure inferred; not fully specified (bridges); printed as Bip4CO2H-AlaPent-Phe4COOH-G-Proc4F-SbMeW4F-Aib-E-W-daMeS-AlaMph-Q-S-G-dProc4CH24Pal, cyclic (macrolactam)
B4: SEQ ID NO: 173 (peptide)
peptide: cyclo([Bip(4'-COOH)][Ala(1-bicyclo(1.1.1)pentyl)][Phe(4-COOH)]G[Pro(cis-4-F)][Trp(βS-Me,4-F)][Aib]SW[αMeK][Ala(morpholin-4-yl)]QSG[dPro(4R-Bzl(4-F))])
modifications: ring closure inferred; not fully specified (bridges); printed as Bip4CO2H-AlaPent-Phe4COOH-G-Proc4F-SbMeW4F-Aib-S-W-aMeK-AlaMph-Q-S-G-dProc4Bn4F, cyclic (macrolactam)
B5: SEQ ID NO: 172 (peptide)
peptide: cyclo([Bip(4'-COOH)][Ala(1-bicyclo(1.1.1)pentyl)][Phe(4-COOH)]G[Pro(cis-4-F)][Trp(βS-Me,4-F)][Aib]SW[d(αMeS)][Ala(piperidin-4-yl)]Q[Dab]G[dPro(4R-Bzl(4-F))])
modifications: ring closure inferred; not fully specified (bridges); printed as Bip4CO2H-AlaPent-Phe4COOH-G-Proc4F-SbMeW4F-Aib-S-W-daMeS-AlaPip4-Q-Dab-G-dProc4Bn4F, cyclic (macrolactam)
B6: SEQ ID NO: 175 (peptide)
peptide: cyclo([Bip(4'-COOH)][Ala(1-bicyclo(1.1.1)pentyl)][Phe(4-COOH)]G[Pro(cis-4-F)][Trp(βS-Me,4-F)][Aib]SW[αMeK][Ala(piperazin-1-yl)]QSG[dPro(4R-Bzl(4-F))])
modifications: ring closure inferred; not fully specified (bridges); printed as Bip4CO2H-AlaPent-Phe4COOH-G-Proc4F-SbMeW4F-Aib-S-W-aMeK-AlaPiperaz-Q-S-G-dProc4Bn4F, cyclic (macrolactam)
B7: SEQ ID NO: 174 (peptide)
peptide: cyclo([Bip(4'-COOH)][Ala(1-bicyclo(1.1.1)pentyl)][Phe(4-COOH)]G[Pro(cis-4-F)][Trp(βS-Me,4-F)][Aib]SW[αMeK][Ala(morpholin-4-yl)]Q[Dab]G[dPro(4R-Bzl(4-F))])
modifications: ring closure inferred; not fully specified (bridges); printed as Bip4CO2H-AlaPent-Phe4COOH-G-Proc4F-SbMeW4F-Aib-S-W-aMeK-AlaMph-Q-Dab-G-dProc4Bn4F, cyclic (macrolactam)
B8: SEQ ID NO: 176 (peptide)
peptide: cyclo([Bip(4'-COOH)][Ala(1-bicyclo(1.1.1)pentyl)][Phe(4-COOH)]G[Pro(cis-4-F)][Trp(βS-Me,4-F)][Aib]EW[Aib][Ala(piperidin-4-yl)]QSG[dPro(4R-(4-pyridylmethyl))])
modifications: ring closure inferred; not fully specified (bridges); printed as Bip4CO2H-AlaPent-Phe4COOH-G-Proc4F-SbMeW4F-Aib-E-W-Aib-AlaPip4-Q-S-G-dProc4CH24Pal, cyclic (macrolactam)

These binders were tested against Recombinant human IL-1β (BioLegend 579404) (human, UniProt P01584 117-269) (assay: cell-based or functional assay).

| MRC5 IC50 [nM] | Binder |
| --- | --- |
| 0.018 | cyclo([Bip(4'-COOH)][Ala(1-bicyclo(1.1.1)pentyl)][Phe(4-COOH)]G[Pro(cis-4-F)][Trp(βS-Me,4-F)][Aib]SW[Aib][Ala(piperazin-1-yl)]Q[Dab]G[dPro(4R-Bzl(4-F))]) (ring closure inferred) [SEQ ID NO: 168] |
| 0.022 | cyclo([Bip(4'-COOH)][Ala(1-bicyclo(1.1.1)pentyl)][Phe(4-COOH)]G[Pro(cis-4-F)][Trp(βS-Me,4-F)][Aib]EW[αMeK][Ala(morpholin-4-yl)]Q[Dab]G[dPro(4R-Bzl(4-F))]) (ring closure inferred) [SEQ ID NO: 165] |
| 0.013 | cyclo([Bip(4'-COOH)][Ala(1-bicyclo(1.1.1)pentyl)][Phe(4-COOH)]G[Pro(cis-4-F)][Trp(βS-Me,4-F)][Aib]SW[d(αMeD)][Ala(pyrimidin-5-yl)]QSG[dPro(4R-(4-pyridylmethyl))]) (ring closure inferred) [SEQ ID NO: 158] |
| 0.029 | B1 |
| 0.019 | cyclo([Bip(4'-COOH)][4Pal][Phe(4-COOH)]G[cisHyp][Trp(βS-Me,4-F)][Aib]SW[d(αMeD)][Ala(pyrimidin-5-yl)]QSG[dPro(4R-(4-pyridylmethyl))]) (ring closure inferred) [SEQ ID NO: 161] |
| 0.015 | cyclo([Bip(4'-COOH)][Ala(1-bicyclo(1.1.1)pentyl)][Phe(4-COOH)]G[Pro(cis-4-F)][Trp(βS-Me,4-F)][Aib]SW[d(αMeS)][Ala(morpholin-4-yl)]Q[Dab]G[dPro(4R-Bzl(4-F))]) (ring closure inferred) [SEQ ID NO: 170] |
| 0.016 | cyclo([Bip(4'-COOH)][Ala(1-bicyclo(1.1.1)pentyl)][Phe(4-COOH)]G[Pro(cis-4-F)][Trp(βS-Me,4-F)][Aib]SW[d(αMeS)][Ala(piperazin-1-yl)]Q[Dab]G[dPro(4R-Bzl(4-F))]) (ring closure inferred) [SEQ ID NO: 171] |
| 0.041 | B2 |
| 0.031 | B3 |
| 0.013 | cyclo([Bip(4'-COOH)][Ala(1-bicyclo(1.1.1)pentyl)][Phe(4-COOH)]G[Pro(cis-4-F)][Trp(βS-Me,4-F)][Aib]SW[Aib][Ala(morpholin-4-yl)]Q[Dab]G[dPro(4R-Bzl(4-F))]) (ring closure inferred) [SEQ ID NO: 167] |
| 0.037 | B4 |
| 0.023 | cyclo([Bip(4'-COOH)][Ala(1-bicyclo(1.1.1)pentyl)][Phe(4-COOH)]G[cisHyp][Trp(βS-Me,4-F)][Aib]SW[d(αMeD)][Ala(pyrimidin-5-yl)]Q[Dab]G[dPro(4R-(4-pyridylmethyl))]) (ring closure inferred) [SEQ ID NO: 160] |
| 0.016 | B5 |
| 0.037 | B6 |
| 0.019 | cyclo([Bip(4'-COOH)][Ala(1-bicyclo(1.1.1)pentyl)][Phe(4-COOH)]G[Pro(cis-4-F)][Trp(βS-Me,4-F)][Aib]SW[Aib][Ala(piperidin-4-yl)]Q[Dab]G[dPro(4R-Bzl(4-F))]) (ring closure inferred) [SEQ ID NO: 169] |
| 0.05 | cyclo([Bip(4'-COOH)][4Pal][Phe(4-COOH)]G[Pro(cis-4-F)][Trp(βS-Me,4-F)][Aib]S[Trp4Az][Aib][Ala(pyrimidin-5-yl)]Q[Dab]G[dPro(4R-(4-pyridylmethyl))]) (ring closure inferred) [SEQ ID NO: 162] |
| 0.039 | cyclo([Bip(4'-COOH)][Ala(1-bicyclo(1.1.1)pentyl)][Phe(4-COOH)]G[Pro(cis-4-F)][Trp(βS-Me,4-F)][Aib]EW[αMeK][Ala(piperidin-4-yl)]Q[Dab]G[dPro(4R-Bzl(4-F))]) (ring closure inferred) [SEQ ID NO: 166] |
| 0.03 | cyclo([Bip(4'-COOH)][Cba][Phe(4-COOH)]G[Pro(cis-4-F)][Trp(βS-Me,4-F)][Aib]SW[Aib][Ala(pyrimidin-5-yl)]Q[Dab]G[dPro(4R-(4-pyridylmethyl))]) (ring closure inferred) [SEQ ID NO: 163] |
| 0.025 | B7 |
| 0.013 | cyclo([Bip(4'-COOH)][4Pal][Phe(4-COOH)]G[cisHyp][Trp(βS-Me,4-F)][Aib]SW[d(αMeD)][Ala(pyrimidin-5-yl)]Q[Dab]G[dPro(4R-(4-pyridylmethyl))]) (ring closure inferred) [SEQ ID NO: 159] |
| 0.039 | cyclo([Bip(4'-COOH)][Cba][Phe(4-COOH)]G[cisHyp][Trp(βS-Me,4-F)][Aib]SW[d(αMeD)][Ala(pyrimidin-5-yl)]Q[Dab]G[dPro(4R-(4-pyridylmethyl))]) (ring closure inferred) [SEQ ID NO: 164] |
| 0.036 | B8 |
